From US20140018297A1 (Novo Nordisk, published 2014) come the findings set out here.

The target in assay [1] is T1, FVIII (N8, turoctocog alfa), B domain truncated FVIII (human, UniProt P00451 20-2351).
T1 construct: also called F8; F8-500
T1 sequence: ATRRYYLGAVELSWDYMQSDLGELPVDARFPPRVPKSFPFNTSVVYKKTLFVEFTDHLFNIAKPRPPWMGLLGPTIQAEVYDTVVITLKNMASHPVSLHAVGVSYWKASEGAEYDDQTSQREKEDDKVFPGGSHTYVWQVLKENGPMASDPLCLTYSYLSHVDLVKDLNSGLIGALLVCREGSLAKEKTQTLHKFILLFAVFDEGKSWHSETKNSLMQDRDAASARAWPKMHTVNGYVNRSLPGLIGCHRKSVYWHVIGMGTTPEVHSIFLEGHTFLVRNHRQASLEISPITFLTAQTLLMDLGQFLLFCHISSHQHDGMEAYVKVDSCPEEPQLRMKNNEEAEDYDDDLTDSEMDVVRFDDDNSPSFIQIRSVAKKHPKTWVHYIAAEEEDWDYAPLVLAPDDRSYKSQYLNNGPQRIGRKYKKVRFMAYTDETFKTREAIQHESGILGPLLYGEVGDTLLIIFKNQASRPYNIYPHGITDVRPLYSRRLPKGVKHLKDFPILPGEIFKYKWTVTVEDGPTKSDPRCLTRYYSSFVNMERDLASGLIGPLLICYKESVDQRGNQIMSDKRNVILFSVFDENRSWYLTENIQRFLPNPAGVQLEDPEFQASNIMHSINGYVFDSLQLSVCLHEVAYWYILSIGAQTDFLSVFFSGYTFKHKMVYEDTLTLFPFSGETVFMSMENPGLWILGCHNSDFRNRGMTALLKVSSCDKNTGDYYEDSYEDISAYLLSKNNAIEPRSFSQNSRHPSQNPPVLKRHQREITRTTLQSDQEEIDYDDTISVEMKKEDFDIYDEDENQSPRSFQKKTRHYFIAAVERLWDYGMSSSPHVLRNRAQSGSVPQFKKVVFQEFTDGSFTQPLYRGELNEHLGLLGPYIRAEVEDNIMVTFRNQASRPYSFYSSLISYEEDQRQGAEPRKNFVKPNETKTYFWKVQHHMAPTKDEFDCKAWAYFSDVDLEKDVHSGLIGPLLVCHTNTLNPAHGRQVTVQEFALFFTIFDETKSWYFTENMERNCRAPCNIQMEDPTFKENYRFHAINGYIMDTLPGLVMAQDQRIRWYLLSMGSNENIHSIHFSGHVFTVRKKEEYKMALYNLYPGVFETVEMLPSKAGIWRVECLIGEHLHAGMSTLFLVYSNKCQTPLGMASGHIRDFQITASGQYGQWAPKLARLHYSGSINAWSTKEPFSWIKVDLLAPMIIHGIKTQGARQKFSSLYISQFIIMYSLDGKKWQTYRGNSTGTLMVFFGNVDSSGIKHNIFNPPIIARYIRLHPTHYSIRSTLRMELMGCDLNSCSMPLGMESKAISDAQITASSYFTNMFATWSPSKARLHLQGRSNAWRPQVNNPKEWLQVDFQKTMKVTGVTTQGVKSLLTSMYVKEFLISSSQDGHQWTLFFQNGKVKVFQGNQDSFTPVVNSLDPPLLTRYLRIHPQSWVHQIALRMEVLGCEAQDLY
Nature of the assay: isothermal titration calorimetry at 20° C., VWF variant injected into FVIII. How it is done: (§1) All protein samples are dialyzed in 50 mM Hepes pH 7.4, 150 mM NaCl, 10 mM CaCl₂ buffer. Each iTC experiment involves filling the iTC cell with FVIII (approximately 250 μL) and the syringe with VWF variants (approximately 40 μL). Temperature is set as required and the protein sample is allowed to equilibrate under given experimental conditions (approximately 10 minutes). Typically 17-20 injections (of 2-2.5 μL) of VWF variants into cell, containing FVIII, are performed. The first injection is always of 0.2 μL and is discarded from the final data analysis in order to account for diffusion during equilibration step. Stirring speed is set between 700-1000 rpm. Filter period for data collection is 5 sec with a high feedback mode setting. Each titration is spaced by 120 sec. Appropriate control experiments are performed. Raw data is processed to set baseline and integrated to obtain a final isotherm. This binding isotherm is fit to a single-site model to yield Kd, stoichiometry (n), ΔH, and ΔS values to complete characterization of VWF variant binding to FVIII.

Assay [2] has as its target T1, FVIII (N8, turoctocog alfa), B domain …. Nature of the assay: isothermal titration calorimetry at 20° C., VWF variant injected into FVIII; ITC at 20° C. How it is done: as §1
(Isothermal titration calorimetry measures the heat released or taken up as one component is titrated into another.)

The target in assay [3] is T2, FVIII (as used in the competition ELISA of Example 21; form not stated) (UniProt P00451 20-2351, limits assumed).
T2 sequence (looked up): T1 sequence
Nature of the assay: competition ELISA; competitor coated human VWF; FVIII 1 nM pre-incubated with the fragment. On the procedure: In order to investigate the binding of the different VWF fragments to FVIII the following method is used. Briefly, human VWF is coated in a microtiterplate and incubated overnight at 4° C. After blocking, a solution with pre-incubated FVIII (1 nM) and VWF/VWF-fragment is added to the plate, followed by detection with biotinylated anti FVIII antibody and streptavidin-peroxidase S-POD (1:20000). The absorbance is measured at 450/620 nm.
On the technique in general: ELISA stands for enzyme-linked immunosorbent assay.

Assay [4] has as its target T1, FVIII (N8, turoctocog alfa), B domain …. Nature of the assay: Isothermal titration calorimetry at 20 °C, VWF fragment in the syringe titrated into FVIII (turoctocog alfa) in the cell, single-site fit; 50 mM Hepes pH 7.4, 150 mM NaCl, 10 mM CaCl2. How it is done:
as §1

The target in assay [5] is T3, Fluorescent labelled FVIII (Oregon green-FVIII) (UniProt P00451 20-2351, limits assumed, Oregon green label).
T3 sequence (looked up): T1 sequence
Nature of the assay: cell-based or functional assay.

For assay [6], the target named is T1, FVIII (N8, turoctocog alfa), B domain …. Nature of the assay: SEC-UV (280 nm), Waters Biosuite 4.6x300 mm, 0.3 ml/min, 155 mM NaCl, 10 mM calcium acetate, 10% isopropanol, 25 °C; FVIII 10 µM, fragment 20 µM, 1:2 mixture. How it is done: Size-exclusion chromatography was performed on a Waters Biosuite 4.6×300 mm column using a flow rate of 0.3 ml/min and a running buffer of 155 mM NaCl, 10 mM Calciumacetat, 10% Isopropanol at 25° C. The absorbance of the effluent was monitored by a UV detector at 280 nm. SEC-UV characterization were performed of FVIII, TIL′/E′/D3/A1 III, TIL′/E′/D3 II, and 1:2 complexes of FVIII—TIL′/E′/D3/A1 III and of FVIII—TIL′/E′/D3 II. Samples of FVIII 10 μM, TIL′/E′/D3/A1 III 20 μM, TIL′/E′/D3 II 20 μM, and in complex were prepared and 15 μL were loaded on to the column.

B1: VWF(764-865)-ALA-HPC4 monomer (other)
chain: SLSCRPPMVKLVCPADNLRAEGLECTKTCQNYDLECMSMGCVSGCLCPPGMVRHENRCVALERCPCFHQGKEYAPGETVKIGCNTCVCQDRKWNCTDHVCDAALAEDQVDPRLIDGK
notes: also called TIL′E′
In the case of B1, in assay [1], the stoichiometry is 1.14, the ΔH was -5.82 kcal/mol and the ΔS is 9.8 cal/mol/deg. In addition, binding in assay [2] was put at a Kd of 330 nM. Further, in assay [3], the IC50 (commonly the concentration that inhibits the measured activity by half) is 2000 nM. Besides, the Ka in assay [4] was found to be 3.02e+06 M⁻¹.

B2: VWF(764-1198)-C1099/1142S-ALA-HPC4 monomer (other)
chain: SLSCRPPMVKLVCPADNLRAEGLECTKTCQNYDLECMSMGCVSGCLCPPGMVRHENRCVALERCPCFHQGKEYAPGETVKIGCNTCVCQDRKWNCTDHVCDATCSTIGMAHYLTFDGLKYLFPGECQYVLVQDYCGSNPGTFRILVGNKGCSHPSVKCKKRVTILVEGGEIELFDGEVNVKRPMKDETHFEVVESGRYIILLLGKALSVVWDRHLSISVVLKQTYQEKVCGLCGNFDGIQNNDLTSSNLQVEEDPVDFGNSWKVSSQCADTRKVPLDSSPATCHNNIMKQTMVDSSCRILTSDVFQDCNKLVDPEPYLDVCIYDTCSCESIGDCASFCDTIAAYAHVCAQHGKVVTWRTATLCPQSCEERNLRENGYESEWRYNSCAPACQVTCQHPEPLACPVQCVEGCHAHCPPGKILDELLQTCVDPEDCPVALAEDQVDPRLIDGK
notes: also called 0003; TIL′/E′/VWD3/C8-3/TIL-3
In turn, B2 returned an IC50 in assay [3] of 28 nM.

B3: VWF(764-1041)-ALA-HPC4 monomer (other)
chain: SLSCRPPMVKLVCPADNLRAEGLECTKTCQNYDLECMSMGCVSGCLCPPGMVRHENRCVALERCPCFHQGKEYAPGETVKIGCNTCVCQDRKWNCTDHVCDATCSTIGMAHYLTFDGLKYLFPGECQYVLVQDYCGSNPGTFRILVGNKGCSHPSVKCKKRVTILVEGGEIELFDGEVNVKRPMKDETHFEVVESGRYIILLLGKALSVVWDRHLSISVVLKQTYQEKVCGLCGNFDGIQNNDLTSSNLQVEEDPVDFGNSWKVSSQCADTRKVPLDSALAEDQVDPRLIDGK
notes: also called 2306; TIL′/E′/VWD3 II
Consider B3, for which the “IC50 (nM), FVIII uptake in dendritic cells” value in assay [5] was 570 nM. Further, the IC50 in assay [3] is 2200 nM.

B4: VWF(764-1261)-C1099/1142S-ALA-HPC4 monomer (other)
chain: SLSCRPPMVKLVCPADNLRAEGLECTKTCQNYDLECMSMGCVSGCLCPPGMVRHENRCVALERCPCFHQGKEYAPGETVKIGCNTCVCQDRKWNCTDHVCDATCSTIGMAHYLTFDGLKYLFPGECQYVLVQDYCGSNPGTFRILVGNKGCSHPSVKCKKRVTILVEGGEIELFDGEVNVKRPMKDETHFEVVESGRYIILLLGKALSVVWDRHLSISVVLKQTYQEKVCGLCGNFDGIQNNDLTSSNLQVEEDPVDFGNSWKVSSQCADTRKVPLDSSPATCHNNIMKQTMVDSSCRILTSDVFQDCNKLVDPEPYLDVCIYDTCSCESIGDCASFCDTIAAYAHVCAQHGKVVTWRTATLCPQSCEERNLRENGYESEWRYNSCAPACQVTCQHPEPLACPVQCVEGCHAHCPPGKILDELLQTCVDPEDCPVCEVAGRRFASGKKVTLNPSDPEHCQICHCDVVNLTCEACQEPGGLVVPPTDAPVSPTTLYVEDALAEDQVDPRLIDGK
notes: also called 2309; TIL′/E′/D3 II
With B4, the binding result in assay [6] is recorded as “binds”.

B5: VWF(864-1250)-C1099/1142S-ALA-HPC4 monomer (other)
chain: DATCSTIGMAHYLTFDGLKYLFPGECQYVLVQDYCGSNPGTFRILVGNKGCSHPSVKCKKRVTILVEGGEIELFDGEVNVKRPMKDETHFEVVESGRYIILLLGKALSVVWDRHLSISVVLKQTYQEKVCGLCGNFDGIQNNDLTSSNLQVEEDPVDFGNSWKVSSQCADTRKVPLDSSPATCHNNIMKQTMVDSSCRILTSDVFQDCNKLVDPEPYLDVCIYDTCSCESIGDCASFCDTIAAYAHVCAQHGKVVTWRTATLCPQSCEERNLRENGYESEWRYNSCAPACQVTCQHPEPLACPVQCVEGCHAHCPPGKILDELLQTCVDPEDCPVCEVAGRRFASGKKVTLNPSDPEHCQICHCDVVNLTCEACQEPGGLVVPPTDAALAEDQVDPRLIDGK
notes: also called 0001; D3 I
For B5, the IC50 in assay [3] came to 20000 nM.

B6: VWF(764-1045)-ALA-HPC4 monomer (other)
chain: SLSCRPPMVKLVCPADNLRAEGLECTKTCQNYDLECMSMGCVSGCLCPPGMVRHENRCVALERCPCFHQGKEYAPGETVKIGCNTCVCQDRKWNCTDHVCDATCSTIGMAHYLTFDGLKYLFPGECQYVLVQDYCGSNPGTFRILVGNKGCSHPSVKCKKRVTILVEGGEIELFDGEVNVKRPMKDETHFEVVESGRYIILLLGKALSVVWDRHLSISVVLKQTYQEKVCGLCGNFDGIQNNDLTSSNLQVEEDPVDFGNSWKVSSQCADTRKVPLDSSPATALAEDQVDPRLIDGK
notes: also called TIL′/E′/VWD3 III
In assay [3], B6 gave an IC50 of 2000 nM.

B7: VWF(764-1250)-C1099/1142S-ALA-HPC4 monomer (other)
chain: SLSCRPPMVKLVCPADNLRAEGLECTKTCQNYDLECMSMGCVSGCLCPPGMVRHENRCVALERCPCFHQGKEYAPGETVKIGCNTCVCQDRKWNCTDHVCDATCSTIGMAHYLTFDGLKYLFPGECQYVLVQDYCGSNPGTFRILVGNKGCSHPSVKCKKRVTILVEGGEIELFDGEVNVKRPMKDETHFEVVESGRYIILLLGKALSVVWDRHLSISVVLKQTYQEKVCGLCGNFDGIQNNDLTSSNLQVEEDPVDFGNSWKVSSQCADTRKVPLDSSPATCHNNIMKQTMVDSSCRILTSDVFQDCNKLVDPEPYLDVCIYDTCSCESIGDCASFCDTIAAYAHVCAQHGKVVTWRTATLCPQSCEERNLRENGYESEWRYNSCAPACQVTCQHPEPLACPVQCVEGCHAHCPPGKILDELLQTCVDPEDCPVCEVAGRRFASGKKVTLNPSDPEHCQICHCDVVNLTCEACQEPGGLVVPPTDAALAEDQVDPRLIDGK
notes: also called TIL′/E′/D3 I
Turning to B7, in assay [5], the “IC50 (nM), FVIII uptake in dendritic cells” value came to 31 nM. In addition, in assay [3], the IC50 came out at 12 nM.
